Measured values as given in patent publication US20050169909A1 (TANOX, published 2005).
Where two headings read alike, the source gives them in different places.

Tests used:
[1] = molecular target: T1, recombinant human IgE, SE44 (human, UniProt P01854-1 1-428); experiment: ELISA titration of Fab on plate-coated SE44 (Example 6)
T1 construct: The IgE used as antigen in the ELISA screens (coated, or biotinylated); also called monoclonal human IgE (SE44); biotinylated SE44
Description: (§1) The constructed library was subjected to an ELISA screen for improved binding to the recombinant human IgE, SE44. Clones with binding affinity greater than murine TES-C21 Fab were isolated and sequenced. Clone ID #4, 49, 72, 76, and 136 were further characterized.
(§2) Plates were coated with 0.25 ug/mL (for purified Fab 0.1 ug/ml) SE44 in carbonate coating buffer overnight at 4° C. Coating solution was removed and the plates were blocked with 200 uL/well 3% BSA/PBS for 1 hour at 37° C.

human IgE [2] = molecular target: T2, human IgE (human, UniProt P01854-1 1-428); experiment: method not stated at the table (Example 10 lists Biacore analysis); target IgE taken from context
T2 construct: it may be SE44; also called intact human IgE; biotinylated IgE

human IgE [3] = molecular target: T2, human IgE; experiment: relative to parent TES-C21
human IgE [4] = molecular target: T2, human IgE; experiment: soluble receptor assay: inhibition of the binding of biotinylated IgE to plate-coated FcεRI alpha chain (Example 8)
Description: A 96 well assay plate suitable for ELISA was coated with 0.05 mL 0.5 μg/mL FcεRI alpha-chain receptor coating buffer (50 mM carbonate/bicarbonate, pH 9.6) for 12 hours at 4-8° C. The wells were aspirated and 25 μL blocking buffer (PBS, 1% BSA, pH 7.2) was added and incubated for 1 hour at 37° C. In a separate assay plate the samples and reference TES-C21 MAbs were titered from 200 to 0.001 μg/mL by 1:4 dilutions with assay buffer (0.5% BSA and 0.05% Tween 20, PBS, pH 7.2) and an equal volume of 100 ng/mL biotinylated IgE was added and the plate incubated for 2-3 hours at 25° C. The FcεRI—coated wells were washed three times with PBS and 0.05% TWEEN 20 and 50 μL from the sample wells were transferred and incubated with agitation for 30 minutes at 25° C. Fifty/μL/well of 1 mg/mL Streptavidin-HRP, diluted 1:2000 in assay buffer, was incubated for 30 minutes with agitation and then the plate was washed as before. Fifty μL/well of TMB substrate was added and color was developed. The reaction was stopped by adding an equal volume of 0.2 M H₂SO₄ and the absorbance measured at 450 nm.

[5] = molecular target: T1, recombinant human IgE, SE44; experiment: ELISA titration of Fab on plate-coated SE44 (Example 6); remark: listed apart in the source
Description: as §1, §2

T1 sequence (P01854 other isoform, or with tags, fused parts or gaps): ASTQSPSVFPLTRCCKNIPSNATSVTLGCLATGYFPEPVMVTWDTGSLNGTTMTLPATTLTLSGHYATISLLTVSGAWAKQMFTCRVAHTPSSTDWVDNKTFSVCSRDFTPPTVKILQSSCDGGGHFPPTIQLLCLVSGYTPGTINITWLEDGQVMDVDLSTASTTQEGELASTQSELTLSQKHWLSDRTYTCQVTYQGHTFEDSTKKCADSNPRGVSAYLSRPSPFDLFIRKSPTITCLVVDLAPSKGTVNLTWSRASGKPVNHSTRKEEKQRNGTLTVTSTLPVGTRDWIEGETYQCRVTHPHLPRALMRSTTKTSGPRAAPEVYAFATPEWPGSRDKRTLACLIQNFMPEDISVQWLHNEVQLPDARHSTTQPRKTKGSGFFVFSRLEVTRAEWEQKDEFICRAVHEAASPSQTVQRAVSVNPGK
T2 sequence (P01854 other isoform, or with tags, fused parts or gaps): as above

| Binder | EC50 (read off the curve) [1] | Kd (human IgE [2]) | Fold Increase in Binding Affinity (human IgE [3]) | IC50 (read off the curve) (human IgE [4]) | EC50 (read off the curve) [5] |
| --- | --- | --- | --- | --- | --- |
| humanized TES-C21 Fab clone 136 (Fab, V domains shown, Retains 5 murine heavy chain framework residues; light chain framework is 100% human; also called Clone ID #136; Humanized clone 136) VH: QVQLVQSGAEVMKPGSSVKVSCKASGYTFSMYWLEWVRQAPGHGLEWMGEISPGTFTTNYNEKFKARVTFTADTSTSTAYMELSSLRSEDTAVYYCARFSHFSGSNYDYFDYWGQGTLVTVSS VL: EIVMTQSPATLSVSPGERATLSCRASQSIGTNIHWYQQKPGQAPRLLIYYASESISGIPARFSGSGSGTEFTLTISSLQSEDFAVYYCQQSDSWPTTFGGGTKVEIK | ~0.04 µg/mL | – | – | – | – |
| Anti-IgE CL-5A (antibody, V domains shown, ATCC PTA-5679; also called MAb 1(CL-5A); clone 5A) VH: QVQLVQSGAEVMKPGSSVKVSCKASGYTFSWYWLEWVRQAPGHGLEWMGEIEPGTETTNYNEKFKARVTFTADTSTSTAYMELSSLRSEDTAVYYCARFSHFSGSNYDYFDYWGQGTLVTVSS VL: EIVMTQSPATLSVSPGERATLSCRASQSIGTNIHWYQQKPGQAPRLLIYYASESISGIPARFSGSGSGTEFTLTISSLQSEDFAVYYCQQSWSWPTTFGGGTKVEIKT | – | 0.158 pM | 3890 fold | – | – |
| Anti-IgE CL-2C (antibody, V domains shown, ATCC PTA-5678; also called MAb 2 (CL-2C); clone 2C) VH: QVQLVQSGAEVMKPGSSVKVSCKASGYTFSWYWLEWVRQAPGHGLEWMGEIDPGTFTTNYNEKFKARVTFTADTSTSTAYMELSSLRSEDTAVYYCARFSHFSGSNYDYFDYWGQGTLVTVSS VL: EIVMTQSPATLSVSPGERATLSCRASQSIGTNIHWYQQKPGQAPRLLIYYASESISGIPARFSGSGSGTEFTLTISSLQSEDFAVYYCQQSWSWPTTFGGGTKVEIKT | – | 1.47 pM | 417 fold | ~0.3 µg/mL | – |
| Anti-IgE CL-5I (antibody, V domains shown, ATCC PTA-5680; also called MAb 3 (CL-5I)) VH: QVQLVQSGAEVMKPGSSVKVSCKASGYTFSMYWLEWVRQAPGHGLEWMGEIDPGTFETNYNEKFKARVTFTADTSTSTAYMELSSLRSEDTAVYYCARFSHFSGSNYDYFDYWGQGTLVTVSS VL: EIVMTQSPATLSVSPGERATLSCRASQSIGTNIHWYQQKPGQAPRLLIYYASESISGIPARFSGSGSGTEFTLTISSLQSEDFAVYYCQQSWSWPTTFGGGTKVEIKT | – | 3.2 pM | 191 fold | – | – |
| C21 (Fab, V domains shown, also called parent Fab of TES-C21; murine TES-C21 Fab) VH: QVQLQQSGAELMKPGASVKISCKTTGYTFSMYWLEWVKQRPGHGLEWVGEISPGTFTTNYNEKFKAKATFTADTSSNTAYLQLSGLTSEDSAVYFCARFSHFSGSNYDYFDYWGQGTSLTVSS VL: DILLTQSPAILSVSPGERVSFSCRASQSIGTNIHWYQQRTDGSPRLLIKYASESISGIPSRFSGSGSGTEFTLNINSVESEDIADYYCQQSDSWPTTFGGGTKLEIK | ~0.05 µg/mL | – | – | – | ~0.05 µg/mL |
| murine anti-IgE monoclonal antibody TES-C21 (antibody, V domains shown, Murine parent antibody; also called murine mAb TES-C21; parent TES-C21) VH: QVQLQQSGAELMKPGASVKISCKTTGYTFSMYWLEWVKQRPGHGLEWVGEISPGTFTTNYNEKFKAKATFTADTSSNTAYLQLSGLTSEDSAVYFCARFSHFSGSNYDYFDYWGQGTSLTVSS VL: DILLTQSPAILSVSPGERVSFSCRASQSIGTNIHWYQQRTDGSPRLLIKYASESISGIPSRFSGSGSGTEFTLNINSVESEDIADYYCQQSDSWPTTFGGGTKLEIK | – | 614 pM | – | – | – |
